Experimental data from the Human Domainome abundance scans (Beltran et al. 2025).
± gives the uncertainty stated by the source.

B1: Tripartite motif-containing protein 49C, residues 87 to 133; numbered along this chain, P0CI26 (parent)
chain: SSEEQMCGTHRETKKIFCEVDRSLLCLLCSSSQEHRYHRHRPIEWAA

Variants of: B1
Experiment: abundance fitness (aPCA) (normalised: wild type 0, dead -1); higher = more abundant; growth selection in yeast, the domain comes from the species named
Conditions: Homo sapiens
SSEEQMCGTRRETKKIFCEVDRSLLCLLCSSSQEHRYHRHRPIEWAA showed an abundance fitness of -0.728 ± 0.095. Variant SSEEQMCGTDRETKKIFCEVDRSLLCLLCSSSQEHRYHRHRPIEWAA has an abundance fitness of -0.303 ± 0.15. Work on SSEEQMCGTNRETKKIFCEVDRSLLCLLCSSSQEHRYHRHRPIEWAA yielded an abundance fitness of -0.836 ± 0.26. Variant SSEEQMCGTWRETKKIFCEVDRSLLCLLCSSSQEHRYHRHRPIEWAA has an abundance fitness of -0.976 ± 0.14. Variant SSEEQMCGTMRETKKIFCEVDRSLLCLLCSSSQEHRYHRHRPIEWAA has an abundance fitness of -1.06 ± 0.18. SSEEQMCGTLRETKKIFCEVDRSLLCLLCSSSQEHRYHRHRPIEWAA gave an abundance fitness of -0.256 ± 0.1. With SSEEQMCGTSRETKKIFCEVDRSLLCLLCSSSQEHRYHRHRPIEWAA the abundance fitness was -0.613 ± 0.099. Variant SSEEQMCGTKRETKKIFCEVDRSLLCLLCSSSQEHRYHRHRPIEWAA has an abundance fitness of -0.714 ± 0.22. Work on SSEEQMCGTGRETKKIFCEVDRSLLCLLCSSSQEHRYHRHRPIEWAA yielded an abundance fitness of -0.671 ± 0.084. In the case of SSEEQMCGTFRETKKIFCEVDRSLLCLLCSSSQEHRYHRHRPIEWAA, the abundance fitness is reported as -1.07 ± 0.19. For SSEEYMCGTHRETKKIFCEVDRSLLCLLCSSSQEHRYHRHRPIEWAA, the abundance fitness was -0.002 ± 0.18. SSEETMCGTHRETKKIFCEVDRSLLCLLCSSSQEHRYHRHRPIEWAA gave an abundance fitness of -0.345 ± 0.12. In the case of SSEEWMCGTHRETKKIFCEVDRSLLCLLCSSSQEHRYHRHRPIEWAA, the abundance fitness is reported as -0.465 ± 0.12. Work on SSEELMCGTHRETKKIFCEVDRSLLCLLCSSSQEHRYHRHRPIEWAA yielded an abundance fitness of -0.044 ± 0.094. With SSEEVMCGTHRETKKIFCEVDRSLLCLLCSSSQEHRYHRHRPIEWAA the abundance fitness was -0.009 ± 0.096. SSEEKMCGTHRETKKIFCEVDRSLLCLLCSSSQEHRYHRHRPIEWAA gave an abundance fitness of 0.165 ± 0.16. With SSEEPMCGTHRETKKIFCEVDRSLLCLLCSSSQEHRYHRHRPIEWAA the abundance fitness was -0.251 ± 0.11. For SSEERMCGTHRETKKIFCEVDRSLLCLLCSSSQEHRYHRHRPIEWAA, the abundance fitness was -0.097 ± 0.082. Work on SSEEIMCGTHRETKKIFCEVDRSLLCLLCSSSQEHRYHRHRPIEWAA yielded an abundance fitness of -0.291 ± 0.27. SSEENMCGTHRETKKIFCEVDRSLLCLLCSSSQEHRYHRHRPIEWAA gave an abundance fitness of -0.337 ± 0.16. With SSEEMMCGTHRETKKIFCEVDRSLLCLLCSSSQEHRYHRHRPIEWAA the abundance fitness was 0.054 ± 0.12. In the case of SSEESMCGTHRETKKIFCEVDRSLLCLLCSSSQEHRYHRHRPIEWAA, the abundance fitness is reported as 0.114 ± 0.098. In the case of SSEEQDCGTHRETKKIFCEVDRSLLCLLCSSSQEHRYHRHRPIEWAA, the abundance fitness is reported as -0.875 ± 0.24. Work on SSEEQCCGTHRETKKIFCEVDRSLLCLLCSSSQEHRYHRHRPIEWAA yielded an abundance fitness of -0.568 ± 0.17. In the case of SSEEQVCGTHRETKKIFCEVDRSLLCLLCSSSQEHRYHRHRPIEWAA, the abundance fitness is reported as -0.21 ± 0.089. SSEEQRCGTHRETKKIFCEVDRSLLCLLCSSSQEHRYHRHRPIEWAA gave an abundance fitness of -0.338 ± 0.092. Work on SSEEQGCGTHRETKKIFCEVDRSLLCLLCSSSQEHRYHRHRPIEWAA yielded an abundance fitness of -0.553 ± 0.099. For SSEEQNCGTHRETKKIFCEVDRSLLCLLCSSSQEHRYHRHRPIEWAA, the abundance fitness was -0.958 ± 0.3. Work on SSEEQACGTHRETKKIFCEVDRSLLCLLCSSSQEHRYHRHRPIEWAA yielded an abundance fitness of -0.575 ± 0.11. SSEEQWCGTHRETKKIFCEVDRSLLCLLCSSSQEHRYHRHRPIEWAA gave an abundance fitness of -0.651 ± 0.15. SSEEQFCGTHRETKKIFCEVDRSLLCLLCSSSQEHRYHRHRPIEWAA gave an abundance fitness of -0.769 ± 0.19. For SSEEQYCGTHRETKKIFCEVDRSLLCLLCSSSQEHRYHRHRPIEWAA, the abundance fitness was -0.344 ± 0.16. For SSEEQICGTHRETKKIFCEVDRSLLCLLCSSSQEHRYHRHRPIEWAA, the abundance fitness was -0.855 ± 0.16. For SSEEQSCGTHRETKKIFCEVDRSLLCLLCSSSQEHRYHRHRPIEWAA, the abundance fitness was -0.57 ± 0.12. In the case of SSEEQHCGTHRETKKIFCEVDRSLLCLLCSSSQEHRYHRHRPIEWAA, the abundance fitness is reported as -0.215 ± 0.19. With SSEEQKCGTHRETKKIFCEVDRSLLCLLCSSSQEHRYHRHRPIEWAA the abundance fitness was -0.581 ± 0.14. In the case of SSEEQQCGTHRETKKIFCEVDRSLLCLLCSSSQEHRYHRHRPIEWAA, the abundance fitness is reported as -0.273 ± 0.11. SSEEQLCGTHRETKKIFCEVDRSLLCLLCSSSQEHRYHRHRPIEWAA gave an abundance fitness of -0.13 ± 0.1. Variant SSEEQTCGTHRETKKIFCEVDRSLLCLLCSSSQEHRYHRHRPIEWAA has an abundance fitness of -0.414 ± 0.12. In the case of SSEEQMCGTHPETKKIFCEVDRSLLCLLCSSSQEHRYHRHRPIEWAA, the abundance fitness is reported as -0.441 ± 0.13. SSEEQMCGTHMETKKIFCEVDRSLLCLLCSSSQEHRYHRHRPIEWAA showed an abundance fitness of -0.48 ± 0.15. SSEEQMCGTHVETKKIFCEVDRSLLCLLCSSSQEHRYHRHRPIEWAA showed an abundance fitness of -0.502 ± 0.11. With SSEEQMCGTHTETKKIFCEVDRSLLCLLCSSSQEHRYHRHRPIEWAA the abundance fitness was -0.135 ± 0.12. Variant SSEEQMCGTHQETKKIFCEVDRSLLCLLCSSSQEHRYHRHRPIEWAA has an abundance fitness of -0.246 ± 0.14. With SSEEQMCGTHCETKKIFCEVDRSLLCLLCSSSQEHRYHRHRPIEWAA the abundance fitness was -0.008 ± 0.12. SSEEQMCGTHEETKKIFCEVDRSLLCLLCSSSQEHRYHRHRPIEWAA showed an abundance fitness of -0.683 ± 0.14. SSEEQMCGTHAETKKIFCEVDRSLLCLLCSSSQEHRYHRHRPIEWAA showed an abundance fitness of -0.134 ± 0.097. For SSEEQMCGTHFETKKIFCEVDRSLLCLLCSSSQEHRYHRHRPIEWAA, the abundance fitness was -0.613 ± 0.29. With SSEEQMCGTHLETKKIFCEVDRSLLCLLCSSSQEHRYHRHRPIEWAA the abundance fitness was -0.418 ± 0.11. SSEEQMCGTHNETKKIFCEVDRSLLCLLCSSSQEHRYHRHRPIEWAA gave an abundance fitness of -0.049 ± 0.17. Variant SSEEQMCGTHGETKKIFCEVDRSLLCLLCSSSQEHRYHRHRPIEWAA has an abundance fitness of -0.069 ± 0.08. Variant SSEEQMCGTHKETKKIFCEVDRSLLCLLCSSSQEHRYHRHRPIEWAA has an abundance fitness of 0.073 ± 0.12. For SSEEQMCGTHHETKKIFCEVDRSLLCLLCSSSQEHRYHRHRPIEWAA, the abundance fitness was 0.154 ± 0.17. For SSEEQMCGTHIETKKIFCEVDRSLLCLLCSSSQEHRYHRHRPIEWAA, the abundance fitness was -0.398 ± 0.23. In the case of SSEEQMCGTHSETKKIFCEVDRSLLCLLCSSSQEHRYHRHRPIEWAA, the abundance fitness is reported as -0.185 ± 0.097.
